Source: patent US20200369755A1 (PROTHENA BIOSCIENCES, published 2020)
Where no end group is shown, it is not given here.

Columns and labels:
316-330 = target: T1, 316-330 (also: biotinylated, site not given here); test: peptide ELISA, biotinylated peptide on streptavidin plate; background-subtracted absorbance; positive from 0.2
T1 construct: also called tau peptide 316-330 (4R0N numbering)
T1 peptide: HKLTFRENAKAKTDH
Protocol: (§1) Additional peptides were used to model potential post-translational modifications of the C- and N-terminal ends of the protein.
(§2) Biotinylated peptides were bound to separate wells of a streptavidin-coated ELISA plate. The plate was blocked and treated with murine 3D6, followed by incubation with a horseradish peroxidase-conjugated anti-mouse antibody. After thorough washing, OPD was applied to the plate and allowed to develop. The plate was read at 450 nm absorbance. Background subtraction was performed with absorbance values from wells containing no primary antibody, and a threshold for positive binding was set to 0.2 absorbance units. […] (FIG. 1)

100-114 = target: T2, 100-114 (also: biotinylated (site not given here)); test: as above
T2 construct: also called tau peptide 100-114 (4R0N numbering)
T2 peptide: APPGQKGQANATRIP
Protocol: as §1, §2

1-15* (free N-term) = target: T3, 1-15* (free N-term) (also: biotinylated (site not given here)); test: as above
T3 construct: also called tau peptide 1-15 (4R0N numbering), free N-terminus
T3 peptide: H-MAEPRQEFEVMEDHA
Protocol: as §1, §2

91-105 = target: T4, 91-105 (also: biotinylated, site not given here); test: as above
T4 construct: also called tau peptide 91-105 (4R0N numbering)
T4 peptide: TKIATPRGAAPPGQK
Protocol: as §1, §2

244-258 = target: T5, 244-258 (also: biotinylated, site not given here); test: as above
T5 peptide: GGGSVQIVYKPVDLS
Protocol: as §1, §2

[1] = target: T6, 369-383 (amidated C-term) (also: biotinylated, site not given here); test: as above
T6 peptide: TLADEVSASLAKQGL-NH2
Protocol: as §1, §2

1-15* (acetylated) = target: T7, 1-15* (acetylated) (also: biotinylated (site not given here)); test: as above
T7 construct: also called tau peptide 1-15 (4R0N numbering), acetylated
T7 peptide: Ac-MAEPRQEFEVMEDHA
Protocol: as §1, §2

325-339 = target: T8, 325-339 (also: biotinylated, site not given here); test: as above
T8 construct: also called tau peptide 325-339 (4R0N numbering)
T8 peptide: KAKTDHGAEIVYKSP
Protocol: as §1, §2

154-168 = target: T9, 154-168 (biotinylated); test: as above
T9 construct: also called tau peptide 154-168 (4R0N numbering)
Protocol: as §1, §2

73-87 = target: T10, 73-87 (also: biotinylated, site not given here); test: as above
T10 construct: also called tau peptide 73-87 (4R0N numbering)
T10 peptide: SKDGTGSDDKKAKGA
Protocol: as §1, §2

82-96 = target: T11, 82-96 (also: biotinylated, site not given here); test: as above
T11 construct: also called tau peptide 82-96 (4R0N numbering)
T11 peptide: KKAKGADGKTKIATP
Protocol: as §1, §2

208-222 = target: T12, 208-222 (also: biotinylated, site not given here); test: as above
T12 construct: also called tau peptide 208-222 (4R0N numbering)
T12 peptide: LKHQPGGGKVQIINK
Protocol: as §1, §2

253-267 = target: T13, 253-267 (also: biotinylated, site not given here); test: as above
T13 construct: also called tau peptide 253-267 (4R0N numbering)
T13 peptide: KPVDLSKVTSKCGSL
Protocol: as §1, §2

235-249 = target: T14, 235-249 (also: biotinylated, site not given here); test: as above
T14 construct: also called tau peptide 235-249 (4R0N numbering)
T14 peptide: SKDNIKHVPGGGSVQ
Protocol: as §1, §2

289-303 = target: T15, 289-303 (also: biotinylated, site not given here); test: as above
T15 construct: also called tau peptide 289-303 (4R0N numbering)
T15 peptide: KDRVQSKIGSLDNIT
Protocol: as §1, §2

[2] = target: T16, biotinylated tau peptide, amino acid residues 262-276 of SEQ ID NO:3 (human, also: biotinylated, site not given here); test: peptide ELISA, epitope mapping of hybridoma positives
T16 construct: One of the overlapping peptides spanning 4R0N human tau
T16 peptide: SKCGSLGNIHHKPGG
Protocol: as §1, §2

[3] = target: T17, biotinylated tau peptide, amino acid residues 199-213 of SEQ ID NO:3 (human, also: biotinylated, site not given here); test: as above
T17 construct: One of the overlapping peptides spanning 4R0N human tau
T17 peptide: KSKIGSTENLKHQPG
Protocol: as §1, §2

recombinant human tau = target: T18, recombinant human tau (human, UniProt P10636-6 1-383, limits assumed); test: SPR (Biacore T200): antibody captured on an anti-mouse chip, recombinant human tau 10-0.14 nM as analyte, global 1:1 fit
T18 construct: also called human recombinant tau without polyhistidine tag; native, untagged protein
T18 sequence (P10636 other isoform, or with tags, fused parts or gaps limits assumed): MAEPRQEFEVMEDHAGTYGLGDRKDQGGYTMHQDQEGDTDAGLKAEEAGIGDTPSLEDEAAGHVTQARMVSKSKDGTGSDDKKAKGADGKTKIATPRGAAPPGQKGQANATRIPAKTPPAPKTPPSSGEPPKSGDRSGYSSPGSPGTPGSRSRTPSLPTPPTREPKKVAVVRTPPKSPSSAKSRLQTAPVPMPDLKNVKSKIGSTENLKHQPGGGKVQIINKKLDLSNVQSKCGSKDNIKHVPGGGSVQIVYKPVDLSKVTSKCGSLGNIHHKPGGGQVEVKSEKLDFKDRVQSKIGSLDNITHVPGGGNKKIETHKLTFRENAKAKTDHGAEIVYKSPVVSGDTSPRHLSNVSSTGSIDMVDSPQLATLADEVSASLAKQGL
Protocol: Methods: SPR analysis was performed using a Biacore T200 to determine the binding kinetics of murine antibodies to recombinant human tau. To prepare a sensor surface, anti-mouse antibody (GE Life Sciences) was immobilized on sensor chip CM5 via amine coupling, and antibody was captured at a level to ensure maximum binding of 50 RU. Various concentrations of recombinant tau ranging from 10-0.14 nM were passed over the captured ligand at a flow rate of 50 μL/min in running buffer (HBS+0.05% P-20, 1 mg/mL BSA), for 180 sec association and 900 sec dissociation. Data were double-referenced to both an irrelevant sensor not containing antibody ligand, and 0 nM analyte concentration to account for the dissociation of ligand from the capture moiety. Data was then analyzed using a global 1:1 fit.

binding result (316-330): no binding
binding result (100-114): no binding
binding result (1-15* (free N-term)): no binding
binding result (91-105): no binding
binding result (244-258): no binding
binding result [1]: no binding
binding result (1-15* (acetylated)): no binding
binding result (325-339): no binding
binding result (154-168): no binding
binding result (73-87): no binding
binding result (82-96): no binding
binding result (208-222): no binding
binding result (253-267): no binding
binding result (235-249): no binding
binding result (289-303): no binding
binding result [2]: binds
binding result [3]: binds
Kd (recombinant human tau): 0.46 nM
koff (recombinant human tau): 0.00119 s⁻¹
kon (recombinant human tau): 2.58e+06 M⁻¹ s⁻¹
B1: murine 3D6 monoclonal antibody (antibody, IgG1, V domains shown)
VH: EVQLQQSGADLVRPGALVKLSCKASGFNIKDYYLHWVRQRPEQGLEWIGWIDPENGDTVYDPKFQGKATITADTSSNTAYLQLGSLTSEDTAVYFCSTLDFWGQGTTLTVSS
VL: not shown
notes: Hybridoma-derived mouse antibody; also called m3D6; mouse 3D6
